Laboratory results taken from patent publication US20200165325A1.

How the values were obtained:
[1] = target: Env (gp120) of HIV-1 strain 0815.v3.c3 (HIV-1)
[2] = target: Env (gp120) of HIV-1 strain 231965.c01 (HIV-1)
[3] = target: Env (gp120) of HIV-1 strain 231966.c02 (HIV-1)
[4] = target: Env (gp120) of HIV-1 strain 3016.v5.c45 (HIV-1)
[5] = target: Env (gp120) of HIV-1 strain 3718.v3.c11 (HIV-1)
[6] = target: Env (gp120) of HIV-1 strain 6480.v4.c25 (HIV-1)
[7] = target: Env (gp120) of HIV-1 strain 6535.3 (HIV-1)
[8] = target: Env (gp120) of HIV-1 strain C2101.c01 (HIV-1)
[9] = target: Env (gp120) of HIV-1 strain CNE17 (HIV-1)
[10] = target: Env (gp120) of HIV-1 strain CNE20 (HIV-1)
[11] = target: Env (gp120) of HIV-1 strain CNE21 (HIV-1)
[12] = target: Env (gp120) of HIV-1 strain Ce0393_C3 (HIV-1)
[13] = target: Env (gp120) of HIV-1 strain Ce1176_A3 (HIV-1)
[14] = target: Env (gp120) of HIV-1 strain Ce2010_F5 (HIV-1)
[15] = target: Env (gp120) of HIV-1 strain Ce703010054_2A2 (HIV-1)
[16] = target: Env (gp120) of HIV-1 strain Du172.17 (HIV-1)
[17] = target: Env (gp120) of HIV-1 strain Du422.1 (HIV-1)
[18] = target: Env (gp120) of HIV-1 strain HIV-16845-2.22 (HIV-1)
[19] = target: Env (gp120) of HIV-1 strain P0402_c2_11 (HIV-1)
[20] = target: Env (gp120) of HIV-1 strain P1981_C5_3 (HIV-1)
[21] = target: Env (gp120) of HIV-1 strain Q461.e2 (HIV-1)
[22] = target: Env (gp120) of HIV-1 strain Q842.d12 (HIV-1)
[23] = target: Env (gp120) of HIV-1 strain QH0692.42 (HIV-1)
[24] = target: Env (gp120) of HIV-1 strain R2184.c04 (HIV-1)
[25] = target: Env (gp120) of HIV-1 strain REJO4541.67 (HIV-1)
[26] = target: Env (gp120) of HIV-1 strain T250-4 (HIV-1)
[27] = target: Env (gp120) of HIV-1 strain T255-34 (HIV-1)
[28] = target: Env (gp120) of HIV-1 strain T257-31 (HIV-1)
[29] = target: Env (gp120) of HIV-1 strain T278-50 (HIV-1)
[30] = target: Env (gp120) of HIV-1 strain THRO4156.18 (HIV-1)
[31] = target: Env (gp120) of HIV-1 strain TRJO4551.58 (HIV-1)
[32] = target: Env (gp120) of HIV-1 strain WITO4160.33 (HIV-1)
[33] = target: Env (gp120) of HIV-1 strain X2131_C1_B5 (HIV-1)
[34] = target: Env (gp120) of HIV-1 strain ZM214M.PL15 (HIV-1)
[35] = target: Env (gp120) of HIV-1 strain ZM53M.PB12 (HIV-1)

Substance | neutralization IC50 [1] [ng/mL] | neutralization IC50 [2] [µg/mL] | neutralization IC50 [3] [µg/mL] | neutralization IC50 [4] [µg/mL] | neutralization IC50 [5] [µg/mL] | neutralization IC50 [6] [µg/mL] | neutralization IC50 [7] [µg/mL] | neutralization IC50 [8] [µg/mL] | neutralization IC50 [9] [µg/mL] | neutralization IC50 [10] [µg/mL] | neutralization IC50 [11] [µg/mL] | neutralization IC50 [12] [µg/mL] | neutralization IC50 [13] [µg/mL] | neutralization IC50 [14] [µg/mL] | neutralization IC50 [15] [µg/mL] | neutralization IC50 [16] [µg/mL] | neutralization IC50 [17] [µg/mL] | neutralization IC50 [18] [µg/mL] | neutralization IC50 [19] [ng/mL] | neutralization IC50 [20] [µg/mL] | other results
NIH45-46^G54W IgG (antibody) | < 1 | < 0.001 | 0.02 | 1.47 | 0.01 | 0.004 | 0.03 | 0.04 | 0.036 | 0.04 | 0.03 | 0.013 | 0.16 | 0.038 | 0.027 | 3.65 | > 50 | 0.45 | 3 | 0.02 | neutralization IC50 [21]: 0.009 µg/mL; neutralization IC50 [22]: 0.005 µg/mL; neutralization IC50 [23]: 0.37 µg/mL; neutralization IC50 [24]: 0.005 µg/mL; neutralization IC50 [25]: 2 ng/mL; neutralization IC50 [26]: 1.33 µg/mL; neutralization IC50 [27]: < 0.001 µg/mL; neutralization IC50 [28]: 0.13 µg/mL; neutralization IC50 [29]: > 50 µg/mL; neutralization IC50 [30]: 0.54 µg/mL; neutralization IC50 [31]: 0.01 µg/mL; neutralization IC50 [32]: 0.01 µg/mL; neutralization IC50 [33]: 0.05 µg/mL; neutralization IC50 [34]: 0.03 µg/mL; neutralization IC50 [35]: 0.04 µg/mL
NIH45-46^G54Y IgG (antibody) | < 1 | 0.025 | 0.06 | 17.9 | 0.3 | 0.018 | 0.08 | 0.09 | 0.073 | 0.33 | 0.07 | 0.036 | 0.21 | 0.049 | 0.022 | > 50 | > 50 | 0.59 | 12 | 0.04 | neutralization IC50 [21]: 0.023 µg/mL; neutralization IC50 [22]: 0.015 µg/mL; neutralization IC50 [23]: 0.52 µg/mL; neutralization IC50 [24]: 0.015 µg/mL; neutralization IC50 [25]: 7 ng/mL; neutralization IC50 [26]: > 50 µg/mL; neutralization IC50 [27]: 0.04 µg/mL; neutralization IC50 [28]: 0.18 µg/mL; neutralization IC50 [29]: > 50 µg/mL; neutralization IC50 [30]: 0.66 µg/mL; neutralization IC50 [31]: 0.03 µg/mL; neutralization IC50 [32]: 0.03 µg/mL; neutralization IC50 [33]: 0.1 µg/mL; neutralization IC50 [34]: 0.06 µg/mL; neutralization IC50 [35]: 0.06 µg/mL
